Data published in article doi:10.1101/2021.03.09.434543.
One block for each molecule: values may come before it.

Key:
[1] = biological target: OsFD7, FLIM-FRET fusion (rice (Oryza sativa)); experiment: FRET or BRET
[2] = biological target: OsFTL1-GST (Oryza sativa (rice), UniProt B7ELI3 1-276); experiment: EMSA
[3] = biological target: T1, OsFD7 (OsbZIP62)-GST (Oryza sativa (rice), UniProt B7F384 1-274); experiment: EMSA
T1 sequence: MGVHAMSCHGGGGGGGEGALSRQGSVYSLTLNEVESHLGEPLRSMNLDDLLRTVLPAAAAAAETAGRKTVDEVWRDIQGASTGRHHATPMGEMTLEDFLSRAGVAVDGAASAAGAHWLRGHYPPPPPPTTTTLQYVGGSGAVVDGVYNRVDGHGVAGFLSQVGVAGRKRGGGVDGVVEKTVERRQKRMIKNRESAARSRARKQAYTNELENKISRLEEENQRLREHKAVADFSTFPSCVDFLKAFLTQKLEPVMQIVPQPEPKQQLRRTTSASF

[4] = biological target: OsGF14b-GST (Oryza sativa (rice), UniProt Q7XTE8 1-262); experiment: EMSA
[5] = biological target: OsFD7 (OsbZIP62)-GST;OsFTL1-GST (Oryza sativa (rice);Oryza sativa (rice), UniProt B7F384;B7ELI3 1-274;1-276, |); experiment: EMSA
[6] = biological target: OsFD7 (OsbZIP62)-GST;OsFTL1-GST;OsGF14b-GST (Oryza sativa (rice);Oryza sativa …, UniProt B7F384;B7ELI3;Q7XTE8 1-274;1-276;1-262, ||); experiment: EMSA

Chain of OsGF14b-GST (Q7XTE8 whole entry): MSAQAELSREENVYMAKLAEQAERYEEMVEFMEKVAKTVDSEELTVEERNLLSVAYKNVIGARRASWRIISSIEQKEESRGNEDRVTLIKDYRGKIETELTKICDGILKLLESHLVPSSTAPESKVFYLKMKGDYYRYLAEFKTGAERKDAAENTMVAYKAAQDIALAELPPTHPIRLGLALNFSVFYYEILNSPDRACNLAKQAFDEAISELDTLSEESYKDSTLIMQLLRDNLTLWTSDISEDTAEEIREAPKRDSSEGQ

FRET efficiency [1]: 15.1%
Molecule: Hd3a, FLIM-FRET fusion (from UniProt Q93WI9 1-179) (natural protein)

FRET efficiency [1]: 23.3%
Molecule: OsFTL1, FLIM-FRET fusion (natural protein)

B1: GB oligo (dsDNA)
DNA 1: GTCACATACACGTGTCAGCTCAG
DNA 2: CTGAGCTGACACGTGTATGTGAC
binding result [2]: no binding
binding result [3]: binds
binding result [4]: no binding
binding result [5]: binds
binding result [6]: binds
